Key:
Cyno B7H6-His [1] = target: T1, Cyno B7H6-His (cynomolgus monkey); experiment: SPR, binder captured on Protein A/G, B7H6 analyte
T1 construct: also called CyB7H6; cyB7-H6
T1 chain: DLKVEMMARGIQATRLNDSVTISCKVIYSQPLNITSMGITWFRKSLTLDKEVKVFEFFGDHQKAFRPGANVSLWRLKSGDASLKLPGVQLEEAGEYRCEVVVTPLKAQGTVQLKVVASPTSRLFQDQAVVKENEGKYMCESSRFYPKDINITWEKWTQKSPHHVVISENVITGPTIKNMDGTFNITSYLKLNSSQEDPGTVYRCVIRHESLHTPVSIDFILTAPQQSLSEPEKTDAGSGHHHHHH
Procedure: (§1) To determine the affinity of human and cyno B7H6 and human B7H1 to B7H6/CD3 binding proteins, the experiment was performed on a Biacore™ 8K instrument (GE Healthcare Life Sciences). Briefly, the B7H6/CD3 binding protein was captured via Protein A/G. The running buffer for this experiment and all serial dilutions were prepared in HBS-EP+. The CM5 sensor chip was activated with an equal mixture of EDC/NHS across both flow cells for 420 s at a flow rate of 10 μL/min and immobilized with recombinant Protein A/G (50 μg/ml in 10 mM NaOAc, pH 4.5) across all flow cells for 420 s at a flow rate of 10 μL/min resulting in about 2500 RU of Protein A/G on the surface. The sensor chip was deactivated with 1M ethanolamine-HCl across all flow cells for 420 s at a flow rate of 10 μL/min.
(§2) About 700 RU of the B7H6/CD3 binding protein was captured on flow cell 2 of the Protein A/G surface for 60 s at a flow rate of 10 μL/min. The analytes HuB7H6, CyB7H6 and HuB7H1 were injected across both flow cells over captured B7H6/CD3 binding protein for 300 s at a flow rate of 30 μL/min with a dissociation of 1200 s. The concentrations of HuB7H6 and CyB7H6 were 0 nM, 6.25 nM, 12.5 nM, 25 nM, 50 nM and 100 nM. The concentrations of HuB7H1 were 0 nM and 1 μM. The surface was regenerated by injecting 10 mM glycine-HCl, pH 1.5 for 20 s at a flow rate of 30 μL/min across both flow cells.
(§3) The reference flow cell 1 (interactions with sensor surface) and blank (HBS-EP+ or 0 nM analyte) were subtracted from the raw data.

[2] = target: T2, trypsin inhibitor from Glycine max soybean (Glycine max (soybean)); experiment: SPR, 1 µM binder over immobilized trypsin inhibitor
T2 construct: unrelated negatively charged protein, amine-coupled to the chip
T2 sequence (P01070 25-205): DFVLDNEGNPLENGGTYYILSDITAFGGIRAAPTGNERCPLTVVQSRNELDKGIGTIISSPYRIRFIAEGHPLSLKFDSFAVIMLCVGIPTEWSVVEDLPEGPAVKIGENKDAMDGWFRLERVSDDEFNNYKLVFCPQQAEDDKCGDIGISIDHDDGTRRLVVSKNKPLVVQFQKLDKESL
Procedure: (§4) The experiment was performed on a Biacore® T200 SPR system (GE Healthcare Life Sciences). The dilution, surface preparation, and binding experiments were performed at 25° C. in 1×HBS-EP buffer prepared from 10×HBS-EP. The flow rate for both the immobilization protocol and binding experiment was at 5 μL/min.
(§5) To prepare the surface for the non-specific binding experiment, chicken egg white lysozyme and trypsin inhibitor from Glycine max soybean were coupled manually to a Biacore® series S CM5 sensor chip (GE Healthcare sciences) with the surface density of 3000-5000 RU using the amine coupling kit according to the manufacture instructions. Samples were prepared at 1 μM in 1×HBS-EP buffer. The samples were injected over activated surfaces with a 10 min association and 15 min dissociation. The data was collected using Biacore® T200 Control Software version 2.0.1 and analyzed using Biacore® T200 Evaluation Software version 3.0 (GE Healthcare Life Sciences).

[3] = target: T3, chicken egg white lysozyme (chicken, UniProt P00698 19-147); experiment: SPR, 1 µM binder over immobilized lysozyme
T3 construct: unrelated positively charged protein, amine-coupled to the chip; also called Lysozyme (positive)
T3 sequence (P00698 19-147): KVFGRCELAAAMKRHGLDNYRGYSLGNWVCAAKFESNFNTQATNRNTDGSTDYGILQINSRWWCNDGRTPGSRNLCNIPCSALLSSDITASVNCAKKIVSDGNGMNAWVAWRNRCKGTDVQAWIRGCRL
Procedure: as §4, §5

Cyno B7H6-His [4] = target: T1, Cyno B7H6-His; experiment: ratio of SPR KDs cyno/human
Procedure: as §2, §3
(§6) The B7H6/CD3 binding protein analyte was injected horizontally over the immobilized surface for 300 s at a flow rate of 30 μL/min with a dissociation of 600 s. The concentrations of the B7H6/CD3 binding protein used were 0 nM, 1.2 nM, 3.7 nM, 11.1 nM, 33.3 nM and 100 nM.

Human B7H1 = target: T4, Human B7H1 (human, UniProt Q9NZQ7 20-239); experiment: SPR, binder captured on Protein A/G, HuB7H1 analyte
T4 construct: also called HuB7H1; huB7-H1
T4 sequence (Q9NZQ7 other isoform, or with tags, fused parts or gaps limits assumed): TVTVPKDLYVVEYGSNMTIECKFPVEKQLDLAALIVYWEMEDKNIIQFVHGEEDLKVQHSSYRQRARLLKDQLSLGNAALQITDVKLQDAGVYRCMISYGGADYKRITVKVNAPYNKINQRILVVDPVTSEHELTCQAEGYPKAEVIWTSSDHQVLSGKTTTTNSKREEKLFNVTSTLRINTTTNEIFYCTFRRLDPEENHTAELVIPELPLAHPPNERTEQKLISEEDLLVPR
Procedure: as §1, §2, §3

Human CD3 E+G HuFc-6xHis = target: T5, Human CD3 E+G HuFc-6xHis (human); experiment: SPR, CD3E+G-hFc immobilized, binder analyte
T5 construct: also called HuCD3E+G-hFc; huCD3
T5 sequence (chain, as listed by the source limits assumed): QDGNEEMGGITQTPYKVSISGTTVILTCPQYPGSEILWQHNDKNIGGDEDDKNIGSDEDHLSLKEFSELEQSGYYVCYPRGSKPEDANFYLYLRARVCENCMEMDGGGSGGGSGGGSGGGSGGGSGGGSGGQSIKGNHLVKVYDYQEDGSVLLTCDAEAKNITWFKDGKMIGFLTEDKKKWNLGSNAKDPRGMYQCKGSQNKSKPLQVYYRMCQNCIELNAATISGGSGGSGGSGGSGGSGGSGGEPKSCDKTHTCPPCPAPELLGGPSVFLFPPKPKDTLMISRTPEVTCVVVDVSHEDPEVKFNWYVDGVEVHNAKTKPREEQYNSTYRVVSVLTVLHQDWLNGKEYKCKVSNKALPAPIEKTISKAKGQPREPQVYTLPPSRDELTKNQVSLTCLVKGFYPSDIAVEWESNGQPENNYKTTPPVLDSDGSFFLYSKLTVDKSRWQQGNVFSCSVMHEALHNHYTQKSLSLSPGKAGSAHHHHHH
Procedure: To determine the affinity of the B7H6/CD3 binding protein to human and cyno CD3E+G-hFc, the experiment was performed on a Bio-Rad ProteOn™ XPR36 instrument. Briefly, HuCD3E+G-hFc and CyCD3E+G were amine-coupled on a ProteOn™ GLM sensor chip (Bio-Rad) and the B7H6/CD3 binding protein was flowed over the immobilized surface. The running buffer for this experiment and all serial dilutions were prepared in HBS-EP+. The GLM sensor chip was normalized according to Bio-Rad's recommendations. The sensor chip was activated with an equal mixture of EDC/s-NHS in the horizontal direction for 300 s at a flow rate of 30 μL/min HuCD3E+G-hFc was immobilized in the vertical direction at 0.4 μg/mL, 0.2 μg/mL and 0.1 μg/mL in 10 mM acetate pH 4.5 to L1, L2 and L3, respectively, for 300 s at a flow rate of 30 μL/min resulting in about 100 RU of HuCD3E+G-hFc on L1, 40 RU of HuCD3E+G-hFc on L2 and 0 RU of HuCD3E+G-hFc on L3. CyCD3E+G-hFc was immobilized in the vertical direction at 0.4 μg/mL, 0.2 μg/mL and 0.1 μg/mL in 10 mM acetate pH 4.5 to L4, L5 and L6, respectively, for 300 s at a flow rate of 30 μL/min resulting in about 385 RU of […], 170 RU of CyCD3E+G-hFc on L5 and 50 RU of CyCD3E+G-hFc on L6. The sensor chip was deactivated with 1M ethanolamine-HCl in the horizontal direction for 300 s at a flow rate of 30 μL/min.
as §6
The interspot (interactions with sensor surface) and blank (HBS-EP+ or 0 nM analyte) were subtracted from the raw data.

B1: B7H6#17/CD3#1 (bispecific antibody, human IgG1, kappa, lambda, L234A L235A)
chain 1: DIQMTQSPSSLSASVGDRVTITCKASQNVGKYVAWYQQKPGKAPKSLIYSASNRYDGVPSRFSGSGSGTDFTLTISSLQPEDFTTYYCQQYISYPLTFGAGTKLEIKRTVAAPSVFIFPPSDEQLKSGTASVVCLLNNFYPREAKVQWKVDNALQSGNSQESVTEQDSKDSTYSLSSTLTLSKADYEKHKVYACEVTHQGLSSPVTKSFNRGECGGGGSEGKSSGSGSESKSTEGKSSGSGSESKSTGGGGSQVQLVQSGAEVKKPGASVKVSCKASGYTFTSYWMNWMRQAPGQGLEWMGGIYLSGDSTDYNEKFKGRVTMTVDTSTSTVYMELSSLRSEDTAVYYCTRRGDYFGDFWGQGTLVTVSSASTKGPSVFPLAPSSKSTSGGTAALGCLVKDYFPEPVTVSWNSGALTSGVHTFPAVLQSSGLYSLSSVVTVPSSSLGTQTYICNVNHKPSNTKVDKRVEPKSCDKTHTCPPCPAPEAAGGPSVFLFPPKPKDTLMISRTPEVTCVVVDVSHEDPEVKFNWYVDGVEVHNAKTKPREEQYNSTYRVVSVLTVLHQDWLNGKEYKCKVSNKALPAPIEKTISKAKGQPREPQVYTLPPSREEMTKNQVSLWCLVKGFYPSDIAVEWESNGQPENNYKTTPPVLDSDGSFFLYSKLTVDKSRWQQGNVFSCSVMHEALHNHYTQKSLSLSPG
chain 2: EAVVTQEPSLTVSPGGTVTLTCRSSTGAVTTSNYANWVQEKPGQLPRGLIGGTNKRAPWVPARFSGSLLGGKAALTLSGAQPEDEAEYFCALWYSNLWVFGGGTKLTVLGQPKAAPSVTLFPPSSEELQANKATLVCLISDFYPGAVKVAWKADGSPVNTGVETTTPSKQSNNKYAASSYLSLTPEQWKSHRSYSCQVTHEGSTVEKTVAPAECSGGGGSEGKSSGSGSESKSTEGKSSGSGSESKSTGGGGSEVQLVESGGGLVQPGGSLKLSCAASGFTFNTYAMNWVRQAPGKGLEWVARIRSKYNNYATYYADSVKDRFTISRDDSKNTAYLQMNNLKTEDTAVYYCVRHGNFGNSYVSWFAYWGQGTLVTVSAASTKGPSVFPLAPSSKSTSGGTAALGCLVKDYFPEPVTVSWNSGALTSGVHTFPAVLQSSGLYSLSSVVTVPSSSLGTQTYICNVNHKPSNTKVDKRVEPKSCDKTHTCPPCPAPEAAGGPSVFLFPPKPKDTLMISRTPEVTCVVVDVSHEDPEVKFNWYVDGVEVHNAKTKPREEQYNSTYRVVSVLTVLHQDWLNGKEYKCKVSNKALPAPIEKTISKAKGQPREPQVYTLPPSREEMTKNQVSLSCAVKGFYPSDIAVEWESNGQPENNYKTTPPVLDSDGSFFLVSKLTVDKSRWQQGNVFSCSVMHEALHNRFTQKSLSLSPG
notes: scFab-Fc heterodimer, one B7H6 chain and one CD3 chain
For B1, the Kd (Cyno B7H6-His [1]) was 8.4 nM, the “Non-specific binding (RU)” value [2] was 88.4 RU and the “Non-specific binding (RU)” value [3] was 15.3 RU. The “cy/hu B7-H6” value (Cyno B7H6-His [4]) was 1, the binding result (Human B7H1) was “no binding (tested: 1 µM)” and the Kd (Human CD3 E+G HuFc-6xHis) was 13.5 nM.

B2: B7H6#12/CD3#1 (bispecific antibody, human IgG1, kappa, lambda, L234A L235A)
chain 1: DIQMTQSPSSLSASVGDRVTITCKASQNVGKYVAWYQQKPGKAPKSLIYSASNRYDGVPSRFSGSGSGTDFTLTISSLQPEDFTTYYCQQYISYPLTFGAGTKLEIKRTVAAPSVFIFPPSDEQLKSGTASVVCLLNNFYPREAKVQWKVDNALQSGNSQESVTEQDSKDSTYSLSSTLTLSKADYEKHKVYACEVTHQGLSSPVTKSFNRGECGGGGSEGKSSGSGSESKSTEGKSSGSGSESKSTGGGGSQVQLVQSGAEVKKPGASVKVSCKASGYTFTNYWMNWVKQAPGQGLEWMGGIYLNGDSTDYNEKFKGKATMTVDTSTSTVYMELSSLRSEDTAVYYCTRRGDYFGDFWGQGTLVTVSSASTKGPSVFPLAPSSKSTSGGTAALGCLVKDYFPEPVTVSWNSGALTSGVHTFPAVLQSSGLYSLSSVVTVPSSSLGTQTYICNVNHKPSNTKVDKRVEPKSCDKTHTCPPCPAPEAAGGPSVFLFPPKPKDTLMISRTPEVTCVVVDVSHEDPEVKFNWYVDGVEVHNAKTKPREEQYNSTYRVVSVLTVLHQDWLNGKEYKCKVSNKALPAPIEKTISKAKGQPREPQVYTLPPSREEMTKNQVSLWCLVKGFYPSDIAVEWESNGQPENNYKTTPPVLDSDGSFFLYSKLTVDKSRWQQGNVFSCSVMHEALHNHYTQKSLSLSPG
chain 2: EAVVTQEPSLTVSPGGTVTLTCRSSTGAVTTSNYANWVQEKPGQLPRGLIGGTNKRAPWVPARFSGSLLGGKAALTLSGAQPEDEAEYFCALWYSNLWVFGGGTKLTVLGQPKAAPSVTLFPPSSEELQANKATLVCLISDFYPGAVKVAWKADGSPVNTGVETTTPSKQSNNKYAASSYLSLTPEQWKSHRSYSCQVTHEGSTVEKTVAPAECSGGGGSEGKSSGSGSESKSTEGKSSGSGSESKSTGGGGSEVQLVESGGGLVQPGGSLKLSCAASGFTFNTYAMNWVRQAPGKGLEWVARIRSKYNNYATYYADSVKDRFTISRDDSKNTAYLQMNNLKTEDTAVYYCVRHGNFGNSYVSWFAYWGQGTLVTVSAASTKGPSVFPLAPSSKSTSGGTAALGCLVKDYFPEPVTVSWNSGALTSGVHTFPAVLQSSGLYSLSSVVTVPSSSLGTQTYICNVNHKPSNTKVDKRVEPKSCDKTHTCPPCPAPEAAGGPSVFLFPPKPKDTLMISRTPEVTCVVVDVSHEDPEVKFNWYVDGVEVHNAKTKPREEQYNSTYRVVSVLTVLHQDWLNGKEYKCKVSNKALPAPIEKTISKAKGQPREPQVYTLPPSREEMTKNQVSLSCAVKGFYPSDIAVEWESNGQPENNYKTTPPVLDSDGSFFLVSKLTVDKSRWQQGNVFSCSVMHEALHNRFTQKSLSLSPG
notes: as for B1
B2 was tested, and the Kd (Cyno B7H6-His [1]) was 2.3 nM, the “Non-specific binding (RU)” value [2] was 35.4 RU and the “Non-specific binding (RU)” value [3] was 9.2 RU. The “cy/hu B7-H6” value (Cyno B7H6-His [4]) was 2.1, the binding result (Human B7H1) was “no binding (tested: 1 µM)” and the Kd (Human CD3 E+G HuFc-6xHis) was 3.6 nM.

Reference: US20210107983A1 (Boehringer Ingelheim, published 2021)
